Measured values as given in patent US20260274993A1 (HUMMINGBIRD BIOSCIENCE PTE, published 2026).
Numbering of substitutions follows the chain as printed.

Experiments:
3A6 mutant FR1 [1] = target: T1, 3A6 mutant FR1; assay: flow cytometry, % parent (FITC), CHO cells expressing 3A6 mutant FR1
T1 construct: also called 3A6 FR1; 3A6-FR1 (VH4-34 FR1 mutant)
Procedure: (§1) For FACS evaluation, cells were assayed in PBS with 0.5% BSA and 2 mM EDTA. […] Cells were incubated with a secondary anti-mouse FITC antibody for 20 mins at 4° C. FITC readout was measured by FACS.

Tabalumab mutant FR1 = target: T2, Tabalumab mutant FR1; assay: flow cytometry, % parent (FITC), CHO cells expressing tabalumab mutant FR1
T2 construct: also called Taba FR1
Procedure: as §1

Zanolimumab mutant FR1 = target: T3, Zanolimumab mutant FR1; assay: flow cytometry, % parent (FITC), CHO cells expressing zanolimumab mutant FR1
T3 construct: also called Zano FR1
Procedure: as §1

3A6 [2] = target: T4, 3A6; assay: flow cytometry, EC50 of % parent (FITC), CHO cells overexpressing surface 3A6
T4 construct: also called 3A6 antibody (containing VH4-34 antigen); 3A6 (VH4-34 antigen)
Procedure: as §1

tabalumab [3] = assay: flow cytometry, EC50 of % parent (FITC), CHO cells overexpressing surface tabalumab (Taba)
Procedure: as §1

zanolimumab [4] = target: T5, zanolimumab; assay: flow cytometry, EC50 of % parent (FITC), CHO cells overexpressing surface zanolimumab (Zano)
T5 construct: VH4-34-containing antibody used as the antigen, overexpressed on the surface of CHO cells; also called Zano.hIgG1
Procedure: as §1

3A6 [5] = target: T4, 3A6; assay: ELISA, human IgG1 antigen captured on anti-human IgG Fc;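 also: humanized antibodies bound to human IgG1 antigen captured at 1 µg/ml on anti-human IgG Fc plates, detected with anti-mouse IgG Fc/HRP, VSTB112 serving as negative control protein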
Procedure: (§2) The binding affinity of each humanized antibody for 3A6 antibody (containing VH4-34 antigen), 3A6-FR1 (VH4-34 FR1 mutant) and VSTB112 (negative control protein) was evaluated.
(§3) Plates were coated with 1 ug/ml of anti-human IgG Fc overnight at 4° C. Plates were washed thrice with PBS/0.05% Tween (PBST) before blocking with 5% BSA for 1 h at room temp (RT). Plates were then washed again before addition of 1 μg/ml of 3A6 (VH4-34 antigen), 3A6-FR1 (VH4-34 FR1 mutant) or VSTB112 (negative control protein) human IgG1 proteins. Plates were washed thrice. […] After washing the plates, anti-mouse IgG Fc/HRP diluted 1:5000 in 1% BSA was added and incubated for 1 h at RT. Plates were washed before detection using 1-step ELISA substrate.

tabalumab [6] = assay: flow cytometry (geomean MFI), CHO cells overexpressing the surface antibody
3A6 [7] = target: T4, 3A6; assay: as above
zanolimumab [8] = target: T5, zanolimumab; assay: as above
[9] = target: T6, antibodies containing VH4-34 endogenously expressed by cell line OCI-Ly3; assay: flow cytometry, EC50 of MFI, OCI-Ly3 cells endogenously expressing VH4-34
T6 construct: Whole, on cells; also called VH4-34-expressing cell line OCI-Ly3
Procedure: (§4) Binding was assessed by FACS. Briefly, cells were assayed in PBS with 0.5% BSA and 2 mM EDTA. Live dead staining was performed with a live dead cell dye for 15 minutes at 4° C. […] Following this, cells were incubated with a secondary PE goat anti-mouse IgG (1:300) for 30 mins at 4° C. and PE readout was measured.

[10] = target: T6, antibodies containing VH4-34 …; assay: flow cytometry, EC50 of % parent, OCI-Ly3 cells endogenously expressing VH4-34
Procedure: as §4

3A6 mutant FR1 [11] = target: T1, 3A6 mutant FR1; assay: ELISA, human IgG1 antigen captured on anti-human IgG Fc;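 also: humanized antibodies bound to human IgG1 antigen captured at 1 µg/ml on anti-human IgG Fc plates, detected with anti-mouse IgG Fc/HRP, VSTB112 serving as negative control protein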
Procedure: as §2, §3

tabalumab [12] = assay: cell-based or functional assay
zanolimumab [13] = target: T5, zanolimumab; assay: cell-based or functional assay
[14] = target: T6, antibodies containing VH4-34 …; assay: cell-based or functional assay

Sequence of tabalumab (VH, as listed by the source, chain 1 of 2): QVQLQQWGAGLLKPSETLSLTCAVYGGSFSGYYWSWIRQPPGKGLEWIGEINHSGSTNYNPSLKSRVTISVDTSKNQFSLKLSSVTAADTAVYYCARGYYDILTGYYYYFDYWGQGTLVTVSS
Sequence of tabalumab (VL, as listed by the source, chain 2 of 2): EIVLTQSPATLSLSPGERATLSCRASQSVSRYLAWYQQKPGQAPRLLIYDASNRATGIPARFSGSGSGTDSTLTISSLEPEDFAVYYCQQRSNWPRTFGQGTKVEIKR
T5 sequence (VH, as listed by the source, chain 1 of 2): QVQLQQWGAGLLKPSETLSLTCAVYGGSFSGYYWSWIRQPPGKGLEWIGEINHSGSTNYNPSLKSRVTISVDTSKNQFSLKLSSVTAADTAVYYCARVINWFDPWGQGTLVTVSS
T5 sequence (VL, as listed by the source, chain 2 of 2): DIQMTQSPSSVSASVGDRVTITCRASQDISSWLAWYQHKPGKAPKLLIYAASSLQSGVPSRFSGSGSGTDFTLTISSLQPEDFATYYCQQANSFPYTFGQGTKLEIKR
T1 sequence (VH, as listed by the source, chain 1 of 2): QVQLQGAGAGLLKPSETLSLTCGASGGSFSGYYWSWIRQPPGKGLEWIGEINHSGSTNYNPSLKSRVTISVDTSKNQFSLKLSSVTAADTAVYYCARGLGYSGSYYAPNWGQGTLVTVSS
T1 sequence (VL, as listed by the source, chain 2 of 2): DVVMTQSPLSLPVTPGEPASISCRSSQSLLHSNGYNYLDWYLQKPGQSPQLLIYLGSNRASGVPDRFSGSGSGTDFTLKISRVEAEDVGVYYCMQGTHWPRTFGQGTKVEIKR
T4 sequence (VH, as listed by the source, chain 1 of 2): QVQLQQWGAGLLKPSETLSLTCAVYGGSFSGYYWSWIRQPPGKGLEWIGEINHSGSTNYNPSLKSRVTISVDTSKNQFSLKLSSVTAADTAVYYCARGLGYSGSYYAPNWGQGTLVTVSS
T3 sequence (VH, as listed by the source, chain 1 of 2): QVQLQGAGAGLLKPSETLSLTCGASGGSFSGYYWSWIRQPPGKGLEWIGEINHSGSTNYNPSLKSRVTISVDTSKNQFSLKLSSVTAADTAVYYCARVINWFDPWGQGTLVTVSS
T2 sequence (VH, as listed by the source, chain 1 of 2): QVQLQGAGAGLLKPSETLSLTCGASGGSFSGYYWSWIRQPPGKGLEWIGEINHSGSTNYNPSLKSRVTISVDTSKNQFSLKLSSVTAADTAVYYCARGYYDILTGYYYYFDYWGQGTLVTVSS

B1: D011-7016-LD1.IgG2a (antibody, V domains shown)
VH: EVQLVESGPSLVKPSQTLSLICSVTGDAITSGYWNWVRKFPGNKLEYMGYISYSGSAHYNPSLKSRISITRDTSKNQYYLQLNSMTTEDTATYYCASYSFAYWGQGTLVTVSA
VL: DIVMTQSPATLSVTPGDSVSLSCRAQQSIDNQLHWYQQRSHESPRLLINYASQSISGIPSRFSGSGSGTDFTLSISSVETEDFGMYFCQQSYGWPYTFGGGTKLEIKR
B1: no binding (tested: Log M about -8.1 (about 8e-9 M)) (3A6 mutant FR1 [1]); no binding (tested: Log M about -8.1 (about 8e-9 M)) (Tabalumab mutant FR1); no binding (tested: Log M about -8.1 (about 8e-9 M)) (Zanolimumab mutant FR1). The EC50 (3A6 [2]) was 10.4 pM, the EC50 (tabalumab [3]) was 8.63 pM and the EC50 (zanolimumab [4]) was 10.5 pM.

B2: D011-7016-LD2.IgG2a (antibody, V domains shown)
VH: B1 VH
VL: B1 VL with Q26S
notes: also called [8]
Work on B2 yielded an EC50 (3A6 [5]) of 25.4 pM, an EC50 (tabalumab [6]) of 280 pM and an EC50 (3A6 [7]) of 519 pM. The EC50 (zanolimumab [8]) was 692 pM, the binding result (3A6 mutant FR1 [1]) was “no binding (tested: Log M about -8.1 (about 8e-9 M))” and the binding result (Tabalumab mutant FR1) was “no binding (tested: Log M about -8.1 (about 8e-9 M))”. The EC50 [9] was 243 pM, the binding result (Zanolimumab mutant FR1) was “no binding (tested: Log M about -8.1 (about 8e-9 M))” and the EC50 (3A6 [2]) was 9.09 pM. For the same binder, the EC50 [10] was 4.77 pM, the EC50 (tabalumab [3]) was 6.88 pM and the EC50 (zanolimumab [4]) was 8.92 pM.

B3: D011-7016-LD2 H4/L4 IgG2a (antibody, V domains shown)
VH: QVQLQESGPGLVKPSETLSLTCTVSWDAITSGYWNWVRQPPGNKLEYMGYISYSGSAHYNPSLKSRITISRDTSKNQYSLKLSSVTAADTAVYYCASYSFAYWGQGTLVTVSS
VL: EIVLTQSPDFQSVTPKEKVTITCRASQSIDNQLHWYQQKPDQSPKLLIKYASQSISGVPSRFSGSGSGTDFTLTISSLEAEDAATYFCQQSYGWPYTFGGGTKLEIKR
For B3, the EC50 (3A6 [5]) was 36.5 pM and the binding result (3A6 mutant FR1 [11]) was “no binding (tested: 1 µg/ml (highest concentration))”.

B4: D011-7016-LD2 H5/L3 IgG2a (antibody, V domains shown)
VH: B3 VH with E16Q, P40H
VL: DIQMTQSPSSLSASVGDRVTITCRASQSIDNQLHWYQQKPGKSPNLLINYASQSISGVPSRFSGSGSGTDFTLTISSLQPEDFATYFCQQSYGWPYTFGGGTKVEIKR
With B4 the EC50 (3A6 [5]) was 282 pM and the binding result (3A6 mutant FR1 [11]) was “no binding (tested: 1 µg/ml (highest concentration))”.

B5: D011-7016-LD2 H5/L1 IgG2a (antibody, V domains shown)
VH: B3 VH with E16Q, P40H
VL: DIVMTQSPPSLSVTPGEPASLSCRASQSIDNQLHWYLQKPGQSPQLLINYASQSISGVTDRFSGSGSGTDFTLKISRVEAEDVGVYFCQQSYGWPYTFGGGTKVEIKR
B5 was tested, and the EC50 (3A6 [5]) was 29.5 pM, the binding result (3A6 mutant FR1 [11]) was “no binding (tested: 1 µg/ml (highest concentration))” and the EC50 (tabalumab [6]) was 313 pM. For the same binder, the EC50 (3A6 [7]) was 590 pM, the EC50 (zanolimumab [8]) was 645 pM and the EC50 [9] was 308 pM. For the same binder, the EC50 [10] was 4.7 pM.

B6: D011-7016-LD2 H1/L1 IgG2a (antibody, V domains shown)
VH: B3 VH with E16Q, P40H, N43K, K44G, V92T
VL: B5 VL
With B6 the EC50 (3A6 [5]) was 44.6 pM and the binding result (3A6 mutant FR1 [11]) was “no binding (tested: 1 µg/ml (highest concentration))”.

B7: D011-7016-LD2 H0/L0 IgG2a (antibody, V domains shown)
VH: B3 VH with W26G, V37I, N43K, K44G
VL: B3 VL with L4M, K49N, F87Y, G100Q
With B7 the EC50 (3A6 [5]) was 36.9 pM, the binding result (3A6 mutant FR1 [11]) was “no binding (tested: 1 µg/ml (highest concentration))” and the EC50 (tabalumab [6]) was 376 pM. It also gave an EC50 (3A6 [7]) of 605 pM, an EC50 (zanolimumab [8]) of 453 pM and an EC50 [9] of 271 pM. It also gave an EC50 [10] of 3.84 pM.

B8: D011-7016-LD2 H5/L4 IgG2a (antibody, V domains shown)
VH: B3 VH with E16Q, P40H
VL: B3 VL
With B8 the EC50 (3A6 [5]) was 49.5 pM, the binding result (3A6 mutant FR1 [11]) was “no binding (tested: 1 µg/ml (highest concentration))” and the EC50 [9] was 282 pM. For the same binder, the EC50 [10] was 2.51 pM.

B9: D011-7016-LD2 H1/L3 IgG2a (antibody, V domains shown)
VH: B3 VH with E16Q, P40H, N43K, K44G, V92T
VL: B4 VL
For B9, the EC50 (3A6 [5]) was 46.9 pM and the binding result (3A6 mutant FR1 [11]) was “no binding (tested: 1 µg/ml (highest concentration))”.

B10: D011-7016-LD2 H1/L4 IgG2a (antibody, V domains shown)
VH: B3 VH with E16Q, P40H, N43K, K44G, V92T
VL: B3 VL
In the case of B10, the EC50 (3A6 [5]) is reported as 23.4 pM, the binding result (3A6 mutant FR1 [11]) is reported as “no binding (tested: 1 µg/ml (highest concentration))” and the EC50 [9] is reported as 460 pM. The EC50 [10] was 7.65 pM.

B11: D011-7016-LD2 H3/L1 IgG2a (antibody, V domains shown)
VH: B3 VH with T23S, K81T, S83T, V85M, V92L
VL: B5 VL
With B11 the EC50 (3A6 [5]) was 39.8 pM, the binding result (3A6 mutant FR1 [11]) was “no binding (tested: 1 µg/ml (highest concentration))” and the EC50 [9] was 292 pM. The EC50 [10] was 3.75 pM.

B12: D011-7016-LD2 H3/L4 IgG2a (antibody, V domains shown)
VH: B3 VH with T23S, K81T, S83T, V85M, V92L
VL: B3 VL
For B12, the EC50 (3A6 [5]) was 62.7 pM and the binding result (3A6 mutant FR1 [11]) was “no binding (tested: 1 µg/ml (highest concentration))”.

B13: D011-7016-LD2 H3/L3 IgG2a (antibody, V domains shown)
VH: B3 VH with T23S, K81T, S83T, V85M, V92L
VL: B4 VL
With B13 the EC50 (3A6 [5]) was 169 pM and the binding result (3A6 mutant FR1 [11]) was “no binding (tested: 1 µg/ml (highest concentration))”.

B14: D011-7016-LD2 H4/L2 IgG2a (antibody, V domains shown)
VH: B3 VH
VL: B5 VL with P18S, L21I, V85M
In the case of B14, the EC50 (3A6 [5]) is reported as 53.2 pM, the binding result (3A6 mutant FR1 [11]) is reported as “no binding (tested: 1 µg/ml (highest concentration))” and the EC50 [9] is reported as 330 pM. The EC50 [10] was 4.28 pM.

B15: D011-7016-LD2 H3/L2 IgG2a (antibody, V domains shown)
VH: B3 VH with T23S, K81T, S83T, V85M, V92L
VL: B5 VL with P18S, L21I, V85M
For B15, the EC50 (3A6 [5]) was 53 pM and the binding result (3A6 mutant FR1 [11]) was “no binding (tested: 1 µg/ml (highest concentration))”.

B16: D011-7016-LD2 H5/L2 IgG2a (antibody, V domains shown)
VH: B3 VH with E16Q, P40H
VL: B5 VL with P18S, L21I, V85M
B16 was tested, and the EC50 (3A6 [5]) was 43.2 pM, the binding result (3A6 mutant FR1 [11]) was “no binding (tested: 1 µg/ml (highest concentration))” and the EC50 (tabalumab [6]) was 284 pM. It also gave an EC50 (3A6 [7]) of 590 pM, an EC50 (zanolimumab [8]) of 650 pM and an EC50 [9] of 281 pM. For the same binder, the EC50 [10] was 4.38 pM.

B17: D011-7016-LD2 H4/L1 IgG2a (antibody, V domains shown)
VH: B3 VH
VL: B5 VL
In the case of B17, the EC50 (3A6 [5]) is reported as 52.1 pM and the binding result (3A6 mutant FR1 [11]) is reported as “no binding (tested: 1 µg/ml (highest concentration))”.

B18: D011-7016-LD2 H4/L3 IgG2a (antibody, V domains shown)
VH: B3 VH
VL: B4 VL
In the case of B18, the EC50 (3A6 [5]) is reported as 11 pM and the binding result (3A6 mutant FR1 [11]) is reported as “no binding (tested: 1 µg/ml (highest concentration))”.

B19: D011-7016-LD2 H1/L2 IgG2a (antibody, V domains shown)
VH: B3 VH with E16Q, P40H, N43K, K44G, V92T
VL: B5 VL with P18S, L21I, V85M
B19 was tested, and the EC50 (3A6 [5]) was 42.7 pM and the binding result (3A6 mutant FR1 [11]) was “no binding (tested: 1 µg/ml (highest concentration))”.

B20: D011-7016.hIgG1 (antibody)
heavy: not shown
light: DIVMTQSPATLSVTPGDSVSLSCRANQSIDNNLHWYQQRSHESPRLLINYASQSISGIPSRFSGSGSGTDFTLSISSVETEDFGMYFCQQSYGWPYTFGGGTKLEIKRTVAAPSVFIFPPSDEQLKSGTASVVCLLNNFYPREAKVQWKVDNALQSGNSQESVTEQDSKDSTYSLSSTLTLSKADYEKHKVYACEVTHQGLSSPVTKSFNRGEC
In the case of B20, the “EC50 of ADCC reporter luminescence (RLU), Jurkat Lucia NFAT-CD16 effector cells with tabalumab-expressing CHO target cells” value (tabalumab [12]) is reported as 1020 pM, the “EC50 of ADCC reporter luminescence (RLU), Jurkat Lucia NFAT-CD16 effector cells with zanolimumab-expressing CHO target cells” value (zanolimumab [13]) is reported as 1090 pM and the “EC50 of ADCP (% CFSE of CD14+ cells), M0 macrophages with CFSE-labelled OCI-Ly3 target cells” value [14] is reported as 61.5 pM.
